Results published in PMC4989169.
Blank lines part the entries; values can stand above or below the molecule they belong to.

Columns and labels:
active MASP-2cf (human) = assay: enzyme inhibition assay (equilibrium KI from residual activity, photometric); enzymes co-incubated with serial dilutions of the inhibitors for 2 h at room temperature; 20 mM HEPES, 145 mM NaCl, 5 mM CaCl2, 0.05% Triton X-100, pH 7.5; Z-Lys-SBzl substrate, read at 410 nm
[1] = target: active MASP-3cf (catalytic fragment of active MASP-3 containing the CCP1-CCP2-SP domains) (human) (UniProt P48740); assay: as above
[2] = target: active MASP-3cf (catalytic fragment of active MASP-3 containing the CCP1-CCP2-SP domains) (human) (UniProt P48740); assay: enzyme inhibition assay (equilibrium KI from residual activity, photometric); Ca2+-free buffer: 20 mM HEPES, 150 mM NaCl, 0.1 mM EDTA, 0.05% Triton-X100, pH 7.4
TFMI-3_HA (human) = TFMI-3_HA (human) (UniProt P10646); assay: SPR; ProteOn XPR36, GLM chip; TFMI-3_HA captured on immobilised anti-HA antibody (50-80 RU), MASP-3cf injected; 20 mM HEPES, 150 mM NaCl, 5 mM CaCl2, 0.05% Triton X-100, pH 7.4; 1:1 Langmuir model

Ki (active MASP-2cf (human)): 75000 nM
Ki [1]: 11.1 nM
Ki [2]: 9.9 nM
Molecule: TFPI-based MASP-3 Inhibitor (TFMI-3) (from UniProt P10646 121-178) (designed binder)

Kd (TFMI-3_HA (human)): 17.7 nM
koff (TFMI-3_HA (human)): 0.00093 s⁻¹
kon (TFMI-3_HA (human)): 52500 M⁻¹ s⁻¹
B1: active MASP-3cf (catalytic fragment of active MASP-3 containing the CCP1-CCP2-SP domains) (enzyme)
chain: IIGGRNAEPGLFPWQALIVVEDTSRVPNDKWFGSGALLSASWILTAAHVLRSQRRDTTVIPVSKEHVTVYLGLHDVRDKSGAVNSSAARVVLHPDFNIQNYNHDIALVQLQEPVPLGPHVMPVCLPRLEPEGPAPHMLGLVAGWGISNPNVTVDEIISSGTRTLSDVLQYVKLPVVPHAECKTSYESRSGNYSVTENMFCAGYYEGGKDTCLGDSGGAFVIFDDLSQRWVVQGLVSWGGPEECGSKQVYGVYTKVSNYVDWVWEQMGLPQSVVEPQVER
